Source: patent US10357539B2, “Use of peptides that block metadherin-SND1 interaction as treatment for cancer” (THE TRUSTEES OF PRINCETON UNIVERSITY, priority 2014, dated 2019)
Where a chain is given by its changes, count along the chain named. In names and notes the source's numbering stands. Where no end group is shown, it is not given here.

B1: MTDH fragment 364-582: GST-tagged MTDH fragment, amino acids 364-582 of SEQ ID NO: 1 (protein, listed as Homo sapiens)
chain: YQWDVSRNQPYIDDEWSGLNGLSSADPNSDWNAPAEEWGNWVDEERASLLKSQEPIPDDQKVSDDDKEKGEGALPTGKSKKKKKKKKKQGEDNSTAQDTEELEKEIREDLPVNTSKTRPKQEKAFSLKTISTSDPAEVLVKNSQPIKTLPPATSTEPSVILSKSDSDKSSSQVPPILQETDKSKSNTKQNSVPPSQTKSETSWESPKQIKKKKKARRET
modifications: GST tag
B2: TPM3: MTDH triple-point mutant W404D, D406R and E407R (protein)
chain: B1 chain with W41D, D43R, E44R
modifications: left off: a dimerising Fc or GST
notes: MTDH triple-point mutant W404D, D406R and E407R
B3: Δ39-43: SND1 with deletion in the SN1 Lβ2-β3 loop (Δ39-43) (protein)
chain: VPTVQRGIIKMVLSGCAIIVRGQPPERQINLSNIRAGNLARRAAATQPDAKDTPDEPWAFPAREFLRKKLIGKEVCFTIENKTPQGREYGMIYLGKDTNGENIAESLVAEGLATRREGMRANNPEQNRLSECEEQAKAAKKGMWSEGNGSHTIRDLKYTIENPRHFVDSHHQKPVNAIIEHVRDGSVVRALLLPDYYLVTVMLSGIKCPTFRREADGSETPEPFAAEAKFFTESRLLQRDVQIILESCHNQNILGTILHPNGNITELLLKEGFARCVDWSIAVYTRGAEKLRAAERFAKERRLRIWRDYVAPTANLDQK
modifications: left off: small tags and cut ends
B4: R324E: SND1 mutant R324E (protein, listed as Homo sapiens)
chain: MASSAQSGGSSGGPAVPTVQRGIIKMVLSGCAIIVRGQPRGGPPPERQINLSNIRAGNLARRAAATQPDAKDTPDEPWAFPAREFLRKKLIGKEVCFTIENKTPQGREYGMIYLGKDTNGENIAESLVAEGLATRREGMRANNPEQNRLSECEEQAKAAKKGMWSEGNGSHTIRDLKYTIENPRHFVDSHHQKPVNAIIEHVRDGSVVRALLLPDYYLVTVMLSGIKCPTFRREADGSETPEPFAAEAKFFTESRLLQRDVQIILESCHNQNILGTILHPNGNITELLLKEGFARCVDWSIAVYTRGAEKLRAAERFAKERRLEIWRDYVAPTANLDQKDKQFVAKVMQVLNADAIVVKLNSGDYKTIHLSSIRPPRLEGENTQDKNKKLRPLYDIPYMFEAREFLRKKLIGKKVNVTVDYIRPASPATETVPAFSERTCATVTIGGINIAEALVSKGLATVIRYRQDDDQRSSHYDELLAAEARAIKNGKGLHSKKEVPIHRVADISGDTQKAKQFLPFLQRAGRSEAVVEYVFSGSRLKLYLPKETCLITFLLAGIECPRGARNLPGLVQEGEPFSEEATLFTKELVLQREVEVEVESMDKAGNFIGWLHIDGANLSVLLVEHALSKVHFTAERSSYYKSLLSAEEAAKQKKEKVWAHYEEQPVEEVMPVLEEKERSASYKPVFVTEITDDLHFYVQDVETGTQLEKLMENMRNDIASHPPVEGSYAPRRGEFCIAKFVDGEWYRARVEKVESPAKIHVFYIDYGNREVLPSTRLGTLSPAFSTRVLPAQATEYAFAFIQVPQDDDARTDAVDSVVRDIQNTQCLLNVEHLSAGCPHVTLQFADSKGDVGLGLVKEGLVMVEVRKEKQFQKVITEYLNAQESAKSARLNLWRYGDFRADDADEFGYSR
B5: R316E: SND1 mutation located outside the interface, negative control (protein)
chain: VPTVQRGIIKMVLSGCAIIVRGQPRGGPPPERQINLSNIRAGNLARRAAATQPDAKDTPDEPWAFPAREFLRKKLIGKEVCFTIENKTPQGREYGMIYLGKDTNGENIAESLVAEGLATRREGMRANNPEQNRLSECEEQAKAAKKGMWSEGNGSHTIRDLKYTIENPRHFVDSHHQKPVNAIIEHVRDGSVVRALLLPDYYLVTVMLSGIKCPTFRREADGSETPEPFAAEAKFFTESRLLQRDVQIILESCHNQNILGTILHPNGNITELLLKEGFARCVDWSIAVYTRGAEKLRAAEEFAKERRLRIWRDYVAPTANLDQK
modifications: left off: small tags and cut ends
notes: SND1 mutation located outside the interface, negative control

How the values were obtained:
[1] = target: T1, SND1 (Homo sapiens, UniProt Q7KZF4); test: GST-mediated pull-down of SND1 by GST-tagged MTDH fragments and mutants; format: binding; conditions: His6-SND1ΔC (1-339); Coomassie blue staining
T1 construct: 15 μg of His-SND1 (16-339) was added to the resin; made in house; host or cells: E. coli DH5α
T1 sequence (Q7KZF4 1-339): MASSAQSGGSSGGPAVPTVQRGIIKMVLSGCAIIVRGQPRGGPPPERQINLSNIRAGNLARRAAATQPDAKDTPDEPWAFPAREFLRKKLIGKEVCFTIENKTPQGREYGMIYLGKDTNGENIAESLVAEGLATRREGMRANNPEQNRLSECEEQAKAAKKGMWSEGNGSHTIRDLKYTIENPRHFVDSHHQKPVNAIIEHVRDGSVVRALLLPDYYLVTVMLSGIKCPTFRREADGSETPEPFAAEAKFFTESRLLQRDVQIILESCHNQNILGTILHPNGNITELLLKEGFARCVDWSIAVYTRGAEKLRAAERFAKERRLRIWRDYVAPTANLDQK
From the text: FIGS. 7A-E represents determination of key regions and residues mediating the MTDH-SND1 interaction. (FIG. 7A) Schematics of MTDH fragments and mutants with indicated SND1-binding capability. + indicates binding and − indicates no binding based on results shown below. Two putative nuclear localization signals are residues 432-451 for NLS2 and residues 561-580 for NLS3. In the enlarged view of the minimal binding region 386-407, 9 residues were targeted for mutagenesis in the current study. […] (FIG. 7B) Pulldown of His6-SND1AC by GST-tagged MTDH fragments with indicated boundaries. The bound proteins were examined by SDS-PAGE and visualized by Coomassie blue staining. (FIG. 7C) Pulldown of His6-SND1ΔC by GST-tagged WT or triple mutant MTDH fragments (364-582). For (FIG. 7B) and (FIG. 7C), 1/10 of the His6-SND1ΔC input was shown, and GST alone was used as a negative control. Representative results of 3 independent experiments are shown. (FIG. 7D, FIG. 7E) Lysates from HEK293T cells expressing the indicated ectopic human SND1, AGO2 or MTDH were immunoprecipitated with anti-Myc and immunoblotted with the indicated antibodies.
(§1) (FIG. 22A) In vitro pull-down of SND1 (16-339) by GST-tagged MTDH (364-582) harboring WT or mutant sequence. The proteins bound to GS4B were examined on SDS-PAGE and visualized by Coomassie blue staining. (FIG. 22B) In vitro pull-down of WT and mutant SND1 (16-339) by GST-tagged MTDH (364-582). The bound proteins were examined as in (FIG. 22A). For both (FIG. 22A) and (FIG. 22B), experiments were repeated three times; representative results are shown. The normalized percentage of binding was averaged from three experiments; mean±SEM was shown below the data. (FIG. 22C) HEK293T cells were transfected with human HA-SND1, WT Myc-MTDH or Myc-MTDH with indicated single point mutation. Lysates were immunoprecipitated with anti-Myc antibody and immunoblotted with the indicated antibodies. (FIG. 22D) HEK293T cells were transfected with human Myc-MTDH, WT HA-SND1 or mutant HA-SND1 with indicated single point mutations or deletions. Lysates were immunoprecipitated with anti-Myc and immunoblotted with the indicated antibodies.
(§2) GST-Mediated Pull-Down Assay: ˜20 μg of GST-MTDH (different truncation forms and site mutants) was bound to 10 μl of glutathione resin via GST tag. The resin was washed with 200 μl assay buffer (25 mM Tris, PH8.0, 150 mM NaCl, 3 mM DTT) three times to remove the excess unbound protein. 15 μg of His-SND1 (16-339) was added to the resin in a 100 μl volume suspended in the assay buffer with 2 mg/ml of BSA. The mixture was washed with 200 μl assay buffer twice before examined by SDS-PAGE, and visualized by Coomassie blue staining. The experiments were repeated 3 times and the ratio of SND1 associated with GST-MTDH was analyzed by ImageJ.

[2] = target: T2, MTDH (364-582) (Homo sapiens, UniProt Q86UE4); test: GST-mediated pull-down of SND1 constructs and mutants by GST-tagged MTDH (364-582); format: binding; conditions: SND1 mutants in SND1 (16-339)
T2 construct: made in house; host or cells: E. coli DH5α
T2 sequence (Q86UE4 364-582): B1 chain
From the text: as §1, §2

[3] = target: T3, Myc-MTDH (Homo sapiens, UniProt Q86UE4, A78S/T317A); test: Co-immunoprecipitation of HA-SND1 (WT or mutant) with Myc-MTDH in HEK293T cells; format: cell-based; conditions: HEK293T cell lysates
T3 construct: Full-length HA-tagged SND1 was co-expressed with full-length Myc-tagged wild-type (WT) or mutant MTDH in HEK293T cells; expressed in transfected cells; host or cells: HEK293T
T3 sequence (Q86UE4 1-582 A78S/T317A): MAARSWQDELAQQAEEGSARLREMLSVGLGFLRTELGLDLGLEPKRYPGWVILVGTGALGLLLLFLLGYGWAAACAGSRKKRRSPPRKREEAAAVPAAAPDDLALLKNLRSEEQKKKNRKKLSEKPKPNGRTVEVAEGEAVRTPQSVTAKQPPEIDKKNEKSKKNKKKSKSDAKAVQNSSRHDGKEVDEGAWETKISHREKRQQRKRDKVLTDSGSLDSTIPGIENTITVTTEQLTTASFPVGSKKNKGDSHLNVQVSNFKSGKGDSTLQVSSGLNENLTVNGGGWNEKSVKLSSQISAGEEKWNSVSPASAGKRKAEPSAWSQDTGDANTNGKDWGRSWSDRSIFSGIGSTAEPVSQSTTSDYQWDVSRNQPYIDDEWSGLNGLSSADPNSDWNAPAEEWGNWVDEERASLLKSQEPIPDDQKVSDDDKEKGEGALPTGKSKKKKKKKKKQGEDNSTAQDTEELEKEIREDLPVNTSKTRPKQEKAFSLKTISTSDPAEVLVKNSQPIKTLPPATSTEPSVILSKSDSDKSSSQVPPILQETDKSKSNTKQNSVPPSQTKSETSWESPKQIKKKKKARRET
From the text: as §1
Immunoprecipitation and western blot: For in vivo immunoprecipitation (IP) experiments, cultured cells were washed in cold PBS and lysed in lysis buffer (20 mM Tris pH 7.4, 0.15 M NaCl, 1 mM EDTA, 1 mM EGTA, 1% Tx-100, 0.0025 M Na2P2O7, 1 mM β-glycerolphosphate, 1 mM Na3VO4, and 1 mM NaF) with an EDTA-free protease inhibitor mixture (Roche Applied Science) and PMSF. Cell lysates were then incubated on ice for 10 min, centrifuged, and precleared by incubating with protein A/G beads (Santa Cruz Biotechnology) for 1 h at 4° C. For IP bead preparation, 30 μl of protein A/G beads were incubated with 5 μg of antibodies for 2 h at 4° C. IPs were carried out for overnight at 4° C., and beads were centrifuged, washed and subsequently boiled for 5 min in SDS protein loading buffer to elute bound protein. IP lysates were subjected to western blotting with indicated antibodies.

Molecule	SND1-binding of MTDH fragments and triple mutants, in vitro [1]	MTDH-binding of SND1 domains and mutants, in vitro [2]	interaction of full-length HA-SND1 (WT or mutant) with Myc-MTDH [3]
22 amino-acid fragment (residues 386-407): GST-tagged minimal SND1-binding fragment of MTDH, residues 386-407 (SSADPNSDWNAPAEEWGNWVDE; also: GST-tagged fragment (tag left off))	sufficient for SND1-binding	–	–
B1	bound stoichiometrically	–	–
B2	bound SND1ΔC as effectively as the WT MTDH	–	–
B3	–	almost completely abolished MTDH-binding	nearly completely abolished MTDH-binding
B4	–	significantly weakened the MTDH-binding	significantly reduced the binding
B5	–	barely affected MTDH-binding	bound readily with Myc-MTDH
